According to patent US20040048243A1, “Methods and compositions for in vitro targeting” (priority 2003, published 2004):
No end group written: not given here.

Key:
CD13 = molecular target: T1, CD13 (Sus scrofa, UniProt P15145); experiment: Peptide competition of angiostatin binding to CD13; conditions: up to 500 μg of peptide; not shown
T1 construct: purchased Sigma, St Louis, Mo; L-9776
T1 sequence (P15145 2-963 limits assumed): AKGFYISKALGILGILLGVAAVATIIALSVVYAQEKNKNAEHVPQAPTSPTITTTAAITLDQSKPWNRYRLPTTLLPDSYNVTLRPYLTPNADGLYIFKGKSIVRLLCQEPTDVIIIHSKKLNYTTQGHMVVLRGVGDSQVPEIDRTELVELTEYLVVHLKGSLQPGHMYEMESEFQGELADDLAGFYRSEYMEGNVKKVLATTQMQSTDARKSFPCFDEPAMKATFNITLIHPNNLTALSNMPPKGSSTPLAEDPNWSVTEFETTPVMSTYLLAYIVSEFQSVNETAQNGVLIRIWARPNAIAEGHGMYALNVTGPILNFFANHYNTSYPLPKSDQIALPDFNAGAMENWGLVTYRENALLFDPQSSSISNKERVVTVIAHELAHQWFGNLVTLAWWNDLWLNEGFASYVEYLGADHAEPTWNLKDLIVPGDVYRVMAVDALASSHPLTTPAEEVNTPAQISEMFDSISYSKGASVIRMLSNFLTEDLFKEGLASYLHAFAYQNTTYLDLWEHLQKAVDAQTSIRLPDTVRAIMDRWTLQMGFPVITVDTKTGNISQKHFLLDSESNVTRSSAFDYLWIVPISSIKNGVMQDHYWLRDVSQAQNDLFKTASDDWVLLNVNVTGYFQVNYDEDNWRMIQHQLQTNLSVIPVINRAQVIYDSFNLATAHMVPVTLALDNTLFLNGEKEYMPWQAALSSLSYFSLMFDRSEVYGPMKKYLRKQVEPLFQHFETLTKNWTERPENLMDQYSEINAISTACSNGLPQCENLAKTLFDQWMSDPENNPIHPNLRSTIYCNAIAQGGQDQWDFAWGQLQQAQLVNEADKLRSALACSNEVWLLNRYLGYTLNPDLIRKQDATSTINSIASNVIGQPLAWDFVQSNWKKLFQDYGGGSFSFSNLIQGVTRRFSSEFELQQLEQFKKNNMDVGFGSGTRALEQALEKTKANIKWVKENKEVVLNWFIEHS
Procedure: (§1) To assess protein-protein interactions, 100 ng/well of protein was coated in triplicate in 96-well plates. The plates were dried at 37° C., blocked with PBS and 3% BSA, and incubated with 10 μg/ml of rhAngiostatin in PBS+1% BSA for three hours at RT. The wells were washed three times with PBS, 3% BSA, 0.01% Tween 20 before incubation with anti-rhAngiostatin antibody (R&D Systems, Inc #AF226) at 1 μg/ml for 1 hour at RT. The wells were then washed three times with PBS, 3% BSA, 0.01% Tween 20 and incubated with […] anti-goat antibody. After washing 3 times with PBS, 0.01% Tween 20 and once with PBS, the wells were developed with p-nitrophenyl phosphate. Binding of alkaline phosphate conjugate was detected colorimetrically at […]. using an ELISA microplate reader.
Binding of angiostatin to CD13 was competitive with the NGR peptide (Burg et al., 1999) in a dose-dependent manner (not shown). Control experiments were run with the CARAC peptide (SEQ ID NO: 169) (not shown). Binding of angiostatin to CD13 was inhibited by more than 50% by 0.5 μg of NGR peptide, while binding was unaffected by up to 500 μg of CARAC peptide (SEQ ID NO: 169) (not shown).

MDA-MB435 cells = experiment: Inhibition of RGD-4C-β-gal phage transduction by synthetic peptides; assay type: cell-based, human; conditions: target cells pre-incubated with synthetic peptide; dose-dependent
Procedure: (§2) In the peptide inhibition experiments, MDA-MB435 cells were cultured on 12-well plates and then incubated with 10 μg of RGD-4C peptide (SEQ ID NO: 166) or control peptides (CARAC, SEQ ID NO: 169 or CKDRFERC, SEQ ID. NO: 59) in normal growth media for 30 minutes. KS1767 cells were grown on 12-well plates and then incubated with 40 μg CTTHWGFTLC (SEQ D NO: 167) or control peptides in normal growth media for 30 minutes. After this the growth media were replaced by 500 μl of MEM containing 2% FCS and 5×10^10 transducing units (TU) of either RGD-4C-β-gal, HWGF-β-gal, or control fd-β-gal phage. Phage vectors were incubated on peptide-treated cells (three hours at 37° C., 5% CO2) followed by a media change to MEM plus 10% FCS. Transduced cells were then maintained in a cell incubator for 72 hours (37° C., 5% CO2).
(§3) In the peptide inhibition assays, β-gal activity in cell lysates was detected by the Galacto-Star® chemiluminescent reporter gene system (Tropix, Bedford, Mass.) according to the manufacturer's protocol. […] Cells were analyzed for GFP gene expression at 72 hours post infection. For GFP detection, cells were analyzed by fluorescence activated cell sorting (FACS) in a FACScan (Becton-Dickinson, San Jose, Calif.) or counted and photographed under a fluorescence microscope (Nikon).

KS1767 cells = experiment: Inhibition of HWGF-β-gal phage transduction by synthetic peptides; assay type: cell-based, human; conditions: target cells pre-incubated with synthetic peptide; dose-dependent
Procedure: as §2, §3

[1] = test system: tumor-associated antigens in tissue sections from bone marrow metastasis; experiment: Immunohistological staining with antibodies against peptide C; assay type: binding, human; conditions: antibodies pre-incubated with GST-peptide C
Procedure: GST-fusion proteins containing the peptide sequence from patient C were coated on multi-well plates. After incubating the plates with the patient's serum, the plates were washed. The bound IgG antibodies were eluted with 50 μl of 0.1 M glycine buffer, pH 2.2, neutralized by addition of 10 μl 1 M Tris pH 9.0, and dialyzed in PBS overnight followed by concentration of the antibody using Centricon-30 (Millipore) filters. The purified antibody (500 μg) was coupled to biotin according to the manufacturer's instructions (Vector). The biotinylated antibody was analyzed by SDS-gel electrophoresis.
Paraffin sections from patient C were stained with purified biotinylated antibodies and peptide antibodies by immunoperoxidase detection using the Dako antigen retrieval kit and DAB as a substrate. All of the sections (4 μm) were counter-stained with hematoxylin. The biotinylated immunopurified antibodies were used at a dilution of 1:100. Peptide C antibodies and purified pre-immune antibodies were used at 0.01 μg/μl. For the inhibition staining, peptide C antibodies were pre-incubated for 30 minutes at room temperature with the GST-peptide C (500μg) prior to staining. Peptide antibodies were generated in rabbits and purified using a T-gel immunoglobulin purification kit and protein G column (Pierce).

[2] = test system: angiostatin receptor in tissue sections; experiment: Angiostatin staining of tissue sections of metastatic human bone marrow; assay type: binding; conditions: 100 μg/ml rh-angiostatin, anti-angiostatin antibody detection
Procedure: Angiostatin was incubated with tissue sections of metastitic human bone marrow. After washing, the tissue sections were developed with an anti-angiostatin Ab, followed by the corresponding secondary Ab conjugated to peroxidase. […] The staining was specific since only this structure and not other cells were stained.
Anti-human Angiostatin were purchased (R&D Systems: AF226). rhAngiostatin was produced by EntreMed, Inc. (Rockville, Md.). Surgical specimens of human metastases (Bouin-fixed 4-6 h, paraffin-embedded sections, 5-6 μm thick) were adsorbed on polylysine-coated slides. Tissue slides were incubated with 100 μg/ml of rh-angiostatin. The slides were washed 3 times and incubated with anti-angiostatin antibody. The slides were washed again 3 times and bound antibodies were detected using an anti-goat peroxidase-conjugate antibody.

CD13 (Aminopeptidase N) = molecular target: T2, CD13 (Aminopeptidase N) (Sus scrofa, UniProt P15145); experiment: Protein-protein interaction ELISA: rhAngiostatin binding to coated protein
T2 construct: purchased Sigma, St Louis, Mo; L-9776
T2 sequence (P15145 1-963): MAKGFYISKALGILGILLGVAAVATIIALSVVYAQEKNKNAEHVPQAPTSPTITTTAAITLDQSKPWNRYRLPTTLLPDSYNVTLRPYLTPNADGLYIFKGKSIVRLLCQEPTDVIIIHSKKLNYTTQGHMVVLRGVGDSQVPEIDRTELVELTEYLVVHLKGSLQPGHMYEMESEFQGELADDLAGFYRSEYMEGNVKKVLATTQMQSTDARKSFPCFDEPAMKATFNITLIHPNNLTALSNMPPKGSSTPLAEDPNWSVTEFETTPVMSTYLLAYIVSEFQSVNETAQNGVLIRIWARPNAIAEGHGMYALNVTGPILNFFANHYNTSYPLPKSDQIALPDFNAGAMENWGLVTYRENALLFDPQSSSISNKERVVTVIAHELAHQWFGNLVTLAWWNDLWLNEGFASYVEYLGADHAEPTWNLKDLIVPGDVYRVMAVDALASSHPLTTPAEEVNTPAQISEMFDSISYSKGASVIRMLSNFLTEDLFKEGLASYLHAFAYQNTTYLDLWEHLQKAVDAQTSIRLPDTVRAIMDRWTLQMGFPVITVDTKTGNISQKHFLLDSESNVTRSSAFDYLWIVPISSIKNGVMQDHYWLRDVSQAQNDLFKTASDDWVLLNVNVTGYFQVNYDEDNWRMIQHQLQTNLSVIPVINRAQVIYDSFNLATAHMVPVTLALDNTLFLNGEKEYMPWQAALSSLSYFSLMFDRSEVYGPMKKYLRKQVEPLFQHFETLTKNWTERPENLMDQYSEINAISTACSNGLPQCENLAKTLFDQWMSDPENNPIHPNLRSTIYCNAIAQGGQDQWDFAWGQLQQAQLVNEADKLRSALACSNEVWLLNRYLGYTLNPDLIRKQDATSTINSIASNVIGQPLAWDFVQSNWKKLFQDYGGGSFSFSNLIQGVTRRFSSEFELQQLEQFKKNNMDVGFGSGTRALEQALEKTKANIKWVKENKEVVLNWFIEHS
Procedure: as §1

FN (fibronectin) = FN (fibronectin) (Homo sapiens, UniProt P02751); experiment: as above
Chain of FN (fibronectin) (P02751 32-2477, species assumed): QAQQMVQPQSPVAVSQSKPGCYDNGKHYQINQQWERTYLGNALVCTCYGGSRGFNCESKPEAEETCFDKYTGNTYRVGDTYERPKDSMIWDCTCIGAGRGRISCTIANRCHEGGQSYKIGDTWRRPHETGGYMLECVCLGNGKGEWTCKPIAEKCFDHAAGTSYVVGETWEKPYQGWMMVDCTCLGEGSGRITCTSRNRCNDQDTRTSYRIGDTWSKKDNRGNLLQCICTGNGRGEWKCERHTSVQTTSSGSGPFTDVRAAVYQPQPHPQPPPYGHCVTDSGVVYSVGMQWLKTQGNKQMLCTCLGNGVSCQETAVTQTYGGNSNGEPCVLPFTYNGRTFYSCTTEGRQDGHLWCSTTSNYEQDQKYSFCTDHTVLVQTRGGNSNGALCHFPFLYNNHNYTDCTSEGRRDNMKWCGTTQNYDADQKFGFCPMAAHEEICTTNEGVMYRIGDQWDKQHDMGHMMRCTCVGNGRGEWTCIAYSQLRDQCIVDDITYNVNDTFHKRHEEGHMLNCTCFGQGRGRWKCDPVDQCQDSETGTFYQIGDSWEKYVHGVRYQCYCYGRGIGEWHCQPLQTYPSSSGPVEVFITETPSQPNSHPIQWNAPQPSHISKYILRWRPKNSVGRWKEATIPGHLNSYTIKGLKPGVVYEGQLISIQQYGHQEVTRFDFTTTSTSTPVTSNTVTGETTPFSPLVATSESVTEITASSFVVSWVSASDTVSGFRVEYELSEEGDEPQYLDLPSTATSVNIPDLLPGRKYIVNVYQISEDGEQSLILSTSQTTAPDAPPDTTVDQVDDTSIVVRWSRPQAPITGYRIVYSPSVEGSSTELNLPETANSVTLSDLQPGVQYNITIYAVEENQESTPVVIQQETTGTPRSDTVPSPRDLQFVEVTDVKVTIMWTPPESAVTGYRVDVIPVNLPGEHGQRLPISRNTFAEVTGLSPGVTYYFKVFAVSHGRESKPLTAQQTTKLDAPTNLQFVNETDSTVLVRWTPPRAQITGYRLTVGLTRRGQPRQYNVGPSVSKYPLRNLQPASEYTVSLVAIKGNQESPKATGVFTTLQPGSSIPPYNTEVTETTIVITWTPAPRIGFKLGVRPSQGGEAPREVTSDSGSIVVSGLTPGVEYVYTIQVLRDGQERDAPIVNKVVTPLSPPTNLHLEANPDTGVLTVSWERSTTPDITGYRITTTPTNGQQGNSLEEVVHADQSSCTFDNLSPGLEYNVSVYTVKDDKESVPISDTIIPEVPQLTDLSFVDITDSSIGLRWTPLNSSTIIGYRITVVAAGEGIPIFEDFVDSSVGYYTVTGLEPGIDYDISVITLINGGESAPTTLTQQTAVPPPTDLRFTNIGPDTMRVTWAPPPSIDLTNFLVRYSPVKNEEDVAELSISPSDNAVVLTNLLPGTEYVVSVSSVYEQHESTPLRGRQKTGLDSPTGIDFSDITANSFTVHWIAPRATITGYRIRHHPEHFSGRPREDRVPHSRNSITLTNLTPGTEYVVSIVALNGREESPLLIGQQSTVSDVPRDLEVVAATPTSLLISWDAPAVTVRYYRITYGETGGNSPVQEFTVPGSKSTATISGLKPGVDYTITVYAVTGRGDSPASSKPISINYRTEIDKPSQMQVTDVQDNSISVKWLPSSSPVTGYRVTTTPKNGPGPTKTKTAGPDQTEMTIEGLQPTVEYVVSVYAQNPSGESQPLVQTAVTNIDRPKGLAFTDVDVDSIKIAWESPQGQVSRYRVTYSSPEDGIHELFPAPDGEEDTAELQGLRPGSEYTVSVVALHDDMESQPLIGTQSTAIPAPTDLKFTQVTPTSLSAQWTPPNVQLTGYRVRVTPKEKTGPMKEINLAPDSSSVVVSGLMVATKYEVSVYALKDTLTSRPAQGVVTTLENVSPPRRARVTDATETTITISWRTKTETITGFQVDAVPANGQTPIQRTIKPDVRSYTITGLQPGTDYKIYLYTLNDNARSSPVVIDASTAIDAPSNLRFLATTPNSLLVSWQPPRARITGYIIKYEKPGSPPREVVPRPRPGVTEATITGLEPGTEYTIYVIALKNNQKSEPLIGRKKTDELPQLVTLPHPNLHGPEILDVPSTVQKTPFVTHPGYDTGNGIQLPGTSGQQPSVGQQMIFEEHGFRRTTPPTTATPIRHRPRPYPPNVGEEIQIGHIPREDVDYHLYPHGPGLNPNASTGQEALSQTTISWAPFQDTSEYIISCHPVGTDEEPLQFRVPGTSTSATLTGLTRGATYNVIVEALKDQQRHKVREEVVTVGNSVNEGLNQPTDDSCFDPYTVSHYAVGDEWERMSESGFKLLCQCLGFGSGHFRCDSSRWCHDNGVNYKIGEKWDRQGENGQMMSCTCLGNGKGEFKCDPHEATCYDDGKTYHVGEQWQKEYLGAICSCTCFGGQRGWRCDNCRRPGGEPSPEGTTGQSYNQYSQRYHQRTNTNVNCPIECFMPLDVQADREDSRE
Procedure: as §1

VN (vitronectin) = molecular target: T3, VN (vitronectin) (Homo sapiens, UniProt P04004); experiment: as above
T3 sequence (P04004 20-478): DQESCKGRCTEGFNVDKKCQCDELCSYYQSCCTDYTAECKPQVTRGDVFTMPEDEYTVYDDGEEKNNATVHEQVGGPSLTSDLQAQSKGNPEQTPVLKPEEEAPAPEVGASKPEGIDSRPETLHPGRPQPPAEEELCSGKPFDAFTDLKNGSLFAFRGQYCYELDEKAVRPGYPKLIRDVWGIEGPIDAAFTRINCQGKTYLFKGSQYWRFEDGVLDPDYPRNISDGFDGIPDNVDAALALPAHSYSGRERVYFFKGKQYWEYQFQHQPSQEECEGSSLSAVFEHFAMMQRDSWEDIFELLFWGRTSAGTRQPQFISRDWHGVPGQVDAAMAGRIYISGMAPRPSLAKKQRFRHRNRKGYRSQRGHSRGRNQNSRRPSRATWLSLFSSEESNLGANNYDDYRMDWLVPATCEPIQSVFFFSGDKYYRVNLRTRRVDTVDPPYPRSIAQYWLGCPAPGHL
Procedure: as §1

[3] = molecular target: T4, HGF (hepatocyte growth factor) (Homo sapiens, UniProt P14210); experiment: as above
T4 construct: purchased Calbiochem, San Diego, Calif; 375228
T4 sequence (P14210 32-728): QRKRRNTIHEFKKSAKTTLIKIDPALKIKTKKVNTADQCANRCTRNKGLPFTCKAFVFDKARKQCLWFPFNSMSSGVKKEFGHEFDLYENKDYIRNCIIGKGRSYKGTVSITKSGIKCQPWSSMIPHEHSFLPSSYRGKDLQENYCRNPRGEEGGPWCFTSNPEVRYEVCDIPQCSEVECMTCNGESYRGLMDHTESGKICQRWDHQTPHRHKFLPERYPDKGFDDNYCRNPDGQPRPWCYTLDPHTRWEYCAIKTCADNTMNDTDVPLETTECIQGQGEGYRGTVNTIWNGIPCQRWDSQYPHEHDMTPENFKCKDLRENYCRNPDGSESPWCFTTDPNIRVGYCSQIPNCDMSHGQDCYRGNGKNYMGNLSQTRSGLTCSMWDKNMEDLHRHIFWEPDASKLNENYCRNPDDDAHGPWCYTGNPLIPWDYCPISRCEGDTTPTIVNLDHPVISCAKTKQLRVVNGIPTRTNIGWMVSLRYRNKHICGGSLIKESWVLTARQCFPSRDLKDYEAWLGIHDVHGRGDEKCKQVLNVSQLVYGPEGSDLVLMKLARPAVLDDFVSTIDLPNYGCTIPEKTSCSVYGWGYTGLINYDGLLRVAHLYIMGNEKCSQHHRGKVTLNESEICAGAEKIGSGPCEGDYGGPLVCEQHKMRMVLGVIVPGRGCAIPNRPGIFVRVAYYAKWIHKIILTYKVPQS
Procedure: as §1

COL IV (collagen IV) = experiment: as above
Procedure: as §1

LN (laminin) = experiment: as above
Procedure: as §1

Thrombospondin 1 (TSP-1) = molecular target: T5, Thrombospondin 1 (TSP-1) (Homo sapiens, UniProt P07996); experiment: as above; conditions: TSP-1, positive control
T5 construct: purchased Calbiochem, San Diego, Calif; 605225
T5 sequence (P07996 19-1170): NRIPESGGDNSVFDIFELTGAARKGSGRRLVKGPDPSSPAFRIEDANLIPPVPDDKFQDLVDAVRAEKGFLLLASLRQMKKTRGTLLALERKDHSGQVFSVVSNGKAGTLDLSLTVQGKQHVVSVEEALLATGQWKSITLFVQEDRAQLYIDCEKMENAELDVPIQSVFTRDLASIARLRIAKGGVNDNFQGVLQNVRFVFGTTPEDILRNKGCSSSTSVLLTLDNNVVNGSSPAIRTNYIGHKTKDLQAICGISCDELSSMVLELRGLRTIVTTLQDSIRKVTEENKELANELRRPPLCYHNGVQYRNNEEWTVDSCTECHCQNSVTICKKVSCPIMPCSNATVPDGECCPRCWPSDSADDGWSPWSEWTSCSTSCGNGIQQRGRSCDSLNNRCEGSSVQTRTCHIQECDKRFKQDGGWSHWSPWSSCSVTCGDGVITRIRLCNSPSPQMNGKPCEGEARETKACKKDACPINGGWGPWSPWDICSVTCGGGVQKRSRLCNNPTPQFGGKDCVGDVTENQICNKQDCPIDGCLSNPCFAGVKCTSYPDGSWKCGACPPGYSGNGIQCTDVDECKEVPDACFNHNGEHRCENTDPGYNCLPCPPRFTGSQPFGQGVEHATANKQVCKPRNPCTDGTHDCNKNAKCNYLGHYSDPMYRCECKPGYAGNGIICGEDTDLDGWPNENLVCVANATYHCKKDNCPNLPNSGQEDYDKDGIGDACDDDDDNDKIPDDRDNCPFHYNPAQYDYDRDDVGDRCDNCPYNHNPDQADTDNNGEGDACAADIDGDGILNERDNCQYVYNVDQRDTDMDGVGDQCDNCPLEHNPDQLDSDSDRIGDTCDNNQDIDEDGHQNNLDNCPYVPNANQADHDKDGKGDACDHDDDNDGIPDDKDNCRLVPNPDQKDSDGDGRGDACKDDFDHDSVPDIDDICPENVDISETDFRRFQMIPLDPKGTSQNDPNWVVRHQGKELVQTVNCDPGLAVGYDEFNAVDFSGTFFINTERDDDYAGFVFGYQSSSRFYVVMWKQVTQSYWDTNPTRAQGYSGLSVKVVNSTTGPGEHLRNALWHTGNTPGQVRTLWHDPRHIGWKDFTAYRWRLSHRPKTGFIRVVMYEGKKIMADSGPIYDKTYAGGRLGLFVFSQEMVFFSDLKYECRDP
Procedure: as §1

bovine serum albumin = molecular target: T6, bovine serum albumin (bovine, UniProt P02769 25-607); experiment: phage binding assay (FIG. 22)
T6 construct: control protein coated on wells; also called BSA
T6 sequence (P02769 25-607 limits assumed): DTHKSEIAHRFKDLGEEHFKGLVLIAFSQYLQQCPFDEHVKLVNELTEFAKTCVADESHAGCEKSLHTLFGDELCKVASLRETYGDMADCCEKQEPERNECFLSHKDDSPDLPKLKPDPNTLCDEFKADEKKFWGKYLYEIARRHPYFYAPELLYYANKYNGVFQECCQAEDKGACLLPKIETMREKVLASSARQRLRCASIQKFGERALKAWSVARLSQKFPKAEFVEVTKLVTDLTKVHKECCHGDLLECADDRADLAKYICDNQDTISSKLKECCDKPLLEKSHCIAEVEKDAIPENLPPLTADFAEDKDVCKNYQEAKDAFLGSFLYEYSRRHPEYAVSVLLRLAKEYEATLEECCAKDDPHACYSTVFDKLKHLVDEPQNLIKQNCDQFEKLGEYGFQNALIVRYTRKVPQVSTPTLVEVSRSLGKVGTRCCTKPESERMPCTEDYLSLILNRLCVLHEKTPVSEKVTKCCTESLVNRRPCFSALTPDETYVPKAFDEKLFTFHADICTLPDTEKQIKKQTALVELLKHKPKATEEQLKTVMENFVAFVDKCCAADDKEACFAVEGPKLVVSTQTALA

Molecule: O=c1[nH]cc(F)c(=O)[nH]1 [CARAC peptide, CARAC]
- effect on binding of angiostatin to CD13 (CD13): unaffected

Molecule: CDCRGDCFC [RGD4C peptide]
- inhibition of RGD-4C-β-gal phage transduction (MDA-MB435 cells): greater than 99%

Molecule: CTTHWGFTLC
- inhibition of HWGF-β-gal phage transduction (KS1767 cells): greater than 90%

Molecule: GST-fusion protein containing peptide C: GST-fusion protein containing peptide C (CNVSDKSC; cysteine pairing not given here; also: fused to GST)
- inhibition of anti-peptide C staining [1]: completely inhibited

B1: angiostatin: rh-Angiostatin produced by EntreMed, Inc. (protein)
chain: VYLSECKTGNGKNYRGTMSKTKNGITCQKWSSTSPHRPRFSPATHPSEGLEENYCRNPDNDPQGPWCYTTDPEKRYDYCDILECEEECMHCSGENYDGKISKTMSGLECQAWDSQSPHAHGYIPSKFPNKNLKKNYCRNPDRELRPWCFTTDPNKRWELCDIPRCTTPPPSSGPTYQCLKGTGENYRGNVAVTVSGHTCQHWSAQTPHTHNRTPENFPCKNLDENYCRNPDGKRAPWCHTTNSQVRWEYCKIPSCDSSPV
- staining of tissue sections [2]: vessel-like
- binding of angiostatin to coated protein (CD13 (Aminopeptidase N)): binds
- binding of angiostatin to coated protein (FN (fibronectin)): not
- binding of angiostatin to coated protein (VN (vitronectin)): not
- binding of angiostatin to coated protein [3]: binds
- binding of angiostatin to coated protein (COL IV (collagen IV)): not
- binding of angiostatin to coated protein (LN (laminin)): not
- binding of angiostatin to coated protein (Thrombospondin 1 (TSP-1)): binds

Molecule: CVPELGHEC (cysteine pairing not given here; also: displayed on phage) [phage bearing the sequence CVPELGHEC]
- binding result (bovine serum albumin): no binding
